The record followed here is article doi:10.1101/515924 (bioRxiv, 2019).

The target in this assay is His×6-Okp1 (budding yeast, UniProt P53298 1-406). Briefly: pull-down.
His×6-Okp1, sequence (P53298 whole entry): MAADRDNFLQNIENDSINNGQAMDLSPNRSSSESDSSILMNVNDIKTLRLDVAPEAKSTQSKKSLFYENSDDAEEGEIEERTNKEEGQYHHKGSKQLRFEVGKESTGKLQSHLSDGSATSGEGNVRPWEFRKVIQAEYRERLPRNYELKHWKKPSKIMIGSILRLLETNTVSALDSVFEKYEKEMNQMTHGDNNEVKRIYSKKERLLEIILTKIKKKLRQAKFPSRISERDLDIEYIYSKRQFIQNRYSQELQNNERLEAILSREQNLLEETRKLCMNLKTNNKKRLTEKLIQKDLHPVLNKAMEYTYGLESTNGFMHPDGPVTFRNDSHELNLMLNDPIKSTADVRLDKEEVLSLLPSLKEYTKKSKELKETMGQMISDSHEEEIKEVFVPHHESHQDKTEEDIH

B1: GST-Sli15 (1-401) (domain or fragment)
chain: MDWAIKAARKKTQRKPGSTRSIIETLDDLNNLTTDAHSEINQRLYESSEWLRNNVYMNTLKYEDKKMEESLISPENTHNKMDVEFPKMKGEYELSNSQNDAAKDVTKTPRNGLHNDKSITPKSLRRKEVTEGMNRFSIHDTNKSPVEPLNSVKVDANESEKSSPWSPYKVEKVLRESSKTSESPINTKRFDNQTWAAKEEMENEPILQALKKAESVKVKPPPNSGIARSQRRSNMFVPLPNKDPLIIQHIPPTKSSGSIPKVRTVKESPIAFKKKSTINSPAIRAVENSDTAGSTKASSVFDRLSSIPTKSFENKISRGNVGHKYSSSSIDLTGSPMKKVSQKFKSINSTDTDMQEALRDIFSVKNKITKNNSPKGKNSRKSSIPRFDKTSLKLTTHKKLA
For the molecule B1, the binding result is on record as “binds”.
